Experimental findings from the supplement of paper PMC7877785 are described below.

± gives the uncertainty stated by the source.

A short description of the series: self-splicing fitness, log relative to wild type (ln ratio); higher = more splicing; Tetrahymena group I intron in knt gene, E. coli kanamycin selection, DiMSum; sequences stand for … in CUCUCU…GGAGGGAAAAGUUAUCAGGCAUGCACCUGGUAGCUAGUCUUUAAACCAAUAGAUUGCAUCGGUUUAAAAGGCAAGACCGUCAAAUUGCGGGAAAGGGGUCAACAGCCGUUCAGUACCAAGUCUCAGGGGAAACUUUGAGAUGGCCUUGCAAAGGGUAUGGUAAUAAGCUGACGGACAUGGUCCUAACCACGCAGCCAAGUCCUAAGUCAACAGAUCUUCUGUUGAUAUGGAUGCAGUUCACAGACUAAAUGUCGGUCGGGGAAGAUGUAUUCUUCUCAUAAGAUAUAGUCGGACCUCUCCUUAAUGGGAGCUAGCGGAUGAAGUGAUGCAACACUGGAGCCGCUGGGAACUAAUUUGUAUGCGAAAGUAUAUUGAUUAGUUUUGGAGUACUCGUGGUCG
A digest of the protocol: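 Library with all eight P1ex-region intron nucleotides randomised, intron inside the knt kanamycin-resistance gene on pET-22b(+), in E. coli BL21(DE3). Cells grew overnight at 37°C or 30°C on LB agar with or without 25 μg/mL kanamycin (plus 100 μg/mL carbenicillin, 50 μM IPTG, 0.2% rhamnose), in six replicate transformations. Pooled colonies were amplicon-sequenced on Illumina HiSeq 2500. DiMSum fitness is the error-weighted combination of wild-type-normalised replicate fold changes, kanamycin versus none.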

Turning to CUUAAGCAAUAUUACGUACA, the “self-splicing fitness (ln)” value (37 °C) is -2.73 ± 0.39.
Turning to CUUAAGCAAUAUUACGUGAG, the “self-splicing fitness (ln)” value is, setting by setting: (30 °C) -3.73 ± 0.19; (37 °C) -2.14 ± 0.14.
Take CUUAAGCAAUAUUACGUGUC: the “self-splicing fitness (ln)” value was -4.45 ± 0.21 (30 °C) and -1.8 ± 0.15 (37 °C).
Consider CUUAAGCAAUAUUACGUGUG, for which the “self-splicing fitness (ln)” value (30 °C) was -1.18 ± 0.061 and the “self-splicing fitness (ln)” value (37 °C) is -0.604 ± 0.074.
In the same order, the values of CUUCAGCAAUAUUACGAAGG are -2.06 ± 0.13 and -1.08 ± 0.18.
On the same counts, the results for CUUCAGCAAUAUUACGACUG are -0.803 ± 0.077 and -0.505 ± 0.092.
In the same order, the values of CUUCAGCAAUAUUACGAGUG are -0.689 ± 0.051 and -0.602 ± 0.071.
On to CUUCAGCAAUAUUACGAUUG, for which the “self-splicing fitness (ln)” value runs as follows: (30 °C) -0.473 ± 0.045; (37 °C) 0.038 ± 0.063.
On to CUUCAGCAAUAUUACGCAAG, for which the “self-splicing fitness (ln)” value by setting is: (30 °C) -4.31 ± 0.26; (37 °C) -1.81 ± 0.2.
In the same order, the values of CUUCAGCAAUAUUACGCAGU are -3.96 ± 0.43 and -2.9 ± 0.33.
CUUCAGCAAUAUUACGCCUG: the “self-splicing fitness (ln)” value is, setting by setting: (30 °C) -0.748 ± 0.074; (37 °C) 0.268 ± 0.1.
In the same order, the values of CUUCAGCAAUAUUACGCGAU are -2.85 ± 0.32 and -1.19 ± 0.38.
Take CUUCAGCAAUAUUACGCUGA: the “self-splicing fitness (ln)” value was -2.41 ± 0.17 (30 °C) and -2.56 ± 0.29 (37 °C).
CUUCAGCAAUAUUACGCUGC: where the note is “37 °C”, the “self-splicing fitness (ln)” value was -1.65 ± 0.18.
Turning to CUUCAGCAAUAUUACGGAUU, the “self-splicing fitness (ln)” value is -2.13 ± 0.18 (30 °C) and -1.75 ± 0.16 (37 °C).
On the same counts, the results for CUUCAGCAAUAUUACGGCCG are -0.988 ± 0.16 and -0.154 ± 0.21.
Consider CUUCAGCAAUAUUACGGCUA, for which the “self-splicing fitness (ln)” value was -3.01 ± 0.2 (30 °C) and -2.06 ± 0.24 (37 °C).
On the same counts, the results for CUUCAGCAAUAUUACGGGAG are -3.41 ± 0.24 and -2.52 ± 0.22.
In the same order, the values of CUUCAGCAAUAUUACGGUCG are -0.131 ± 0.062 and -0.155 ± 0.093.
On the same counts, the results for CUUCAGCAAUAUUACGUAUA are -3.15 ± 0.27 and -1.98 ± 0.2.
Take CUUCAGCAAUAUUACGUAUG: the “self-splicing fitness (ln)” value runs as follows: (30 °C) -0.871 ± 0.066; (37 °C) -0.276 ± 0.074.
On the same counts, the results for CUUCAGCAAUAUUACGUCGA are -4.35 ± 0.46 and -2.95 ± 0.3.
Take CUUCAGCAAUAUUACGUCUA: for the setting “37 °C”, the “self-splicing fitness (ln)” value is -2.38 ± 0.32.
As for CUUCAGCAAUAUUACGUGGA, the “self-splicing fitness (ln)” value (30 °C) is -3.13 ± 0.33 and the “self-splicing fitness (ln)” value (37 °C) was -3.04 ± 0.28.
Consider CUUCAGCAAUAUUACGUUAA, for which the “self-splicing fitness (ln)” value was -2.84 ± 0.24 (30 °C) and -3.51 ± 0.46 (37 °C).
On the same counts, the results for CUUCAGCAAUAUUACGUUUU are -1.52 ± 0.13 and -2.46 ± 0.26.
In the same order, the values of CUUGAGCAAUAUUACGAAAG are -2.3 ± 0.25 and -3.32 ± 0.46.
With CUUGAGCAAUAUUACGAAGA, the “self-splicing fitness (ln)” value is -2.53 ± 0.27 (30 °C) and -3.17 ± 0.37 (37 °C).
On the same counts, the results for CUUGAGCAAUAUUACGACCG are -1.68 ± 0.19 and -1.16 ± 0.26.
In the case of CUUGAGCAAUAUUACGAGAC, the “self-splicing fitness (ln)” value (30 °C) was -2.12 ± 0.33.
As for CUUGAGCAAUAUUACGAUGA, the “self-splicing fitness (ln)” value is -1.49 ± 0.23 (30 °C) and -2.03 ± 0.28 (37 °C).
On the same counts, the results for CUUGAGCAAUAUUACGAUGC are -3.25 ± 0.3 and -2.5 ± 0.41.
On the same counts, the results for CUUGAGCAAUAUUACGAUUG are -2.49 ± 0.13 and -1.32 ± 0.14.
With CUUGAGCAAUAUUACGCAAG, the “self-splicing fitness (ln)” value (30 °C) is -2.37 ± 0.42.
Turning to CUUGAGCAAUAUUACGCAGU, the “self-splicing fitness (ln)” value is, setting by setting: (30 °C) -2.73 ± 0.23; (37 °C) -2.64 ± 0.37.
As for CUUGAGCAAUAUUACGCCGU, the “self-splicing fitness (ln)” value (30 °C) is -3.24 ± 0.29.
For the sequence CUUGAGCAAUAUUACGCCUC, under “37 °C”, the “self-splicing fitness (ln)” value was -0.747 ± 0.3.
As for CUUGAGCAAUAUUACGCGAC, the “self-splicing fitness (ln)” value (30 °C) was -3.55 ± 0.28 and the “self-splicing fitness (ln)” value (37 °C) was -0.595 ± 0.16.
Take CUUGAGCAAUAUUACGCGGA: the “self-splicing fitness (ln)” value (30 °C) is -2.71 ± 0.33 and the “self-splicing fitness (ln)” value (37 °C) is -3.47 ± 0.31.
On to CUUGAGCAAUAUUACGCUGG, for which the “self-splicing fitness (ln)” value is -3.81 ± 0.25 (30 °C) and -2.17 ± 0.17 (37 °C).
For the sequence CUUGAGCAAUAUUACGGAAU, the “self-splicing fitness (ln)” value (30 °C) was -2.85 ± 0.41 and the “self-splicing fitness (ln)” value (37 °C) was -2.3 ± 0.48.
On the same counts, the results for CUUGAGCAAUAUUACGGGAA are -3.79 ± 0.42 and -2.73 ± 0.2.
Take CUUGAGCAAUAUUACGGGCG: the “self-splicing fitness (ln)” value runs as follows: (30 °C) -2.02 ± 0.13; (37 °C) -1.51 ± 0.11.
CUUGAGCAAUAUUACGGGGA: the “self-splicing fitness (ln)” value reads like this: (30 °C) -3.27 ± 0.2; (37 °C) -2.87 ± 0.28.
CUUGAGCAAUAUUACGGUCC: for the setting “30 °C”, the “self-splicing fitness (ln)” value is -0.924 ± 0.28.
Take CUUGAGCAAUAUUACGGUCU: the “self-splicing fitness (ln)” value reads like this: (30 °C) -3.17 ± 0.29; (37 °C) -3.61 ± 0.37.
On the same counts, the results for CUUGAGCAAUAUUACGGUGU are -3 ± 0.13 and -3.01 ± 0.18.
In the same order, the values of CUUGAGCAAUAUUACGUAGA are -3.54 ± 0.21 and -3.91 ± 0.39.
On the same counts, the results for CUUGAGCAAUAUUACGUAUG are -1.21 ± 0.1 and -1.35 ± 0.14.
For the sequence CUUGAGCAAUAUUACGUCCG, the “self-splicing fitness (ln)” value was -1.86 ± 0.19 (30 °C) and -0.79 ± 0.19 (37 °C).
Consider CUUGAGCAAUAUUACGUCGC, for which the “self-splicing fitness (ln)” value was -2.54 ± 0.21 (30 °C) and -1.81 ± 0.19 (37 °C).
In the same order, the values of CUUGAGCAAUAUUACGUCUC are -3.07 ± 0.24 and -2.19 ± 0.27.
As to CUUGAGCAAUAUUACGUCUG, the “self-splicing fitness (ln)” value is -0.671 ± 0.086 (30 °C) and -0.657 ± 0.11 (37 °C).
CUUGAGCAAUAUUACGUCUU: the “self-splicing fitness (ln)” value (30 °C) was -4.1 ± 0.21 and the “self-splicing fitness (ln)” value (37 °C) was -2.48 ± 0.2.
As for CUUGAGCAAUAUUACGUGUU, the “self-splicing fitness (ln)” value (37 °C) is -2.54 ± 0.23.
On to CUUGAGCAAUAUUACGUUAG, for which the “self-splicing fitness (ln)” value was -3.13 ± 0.2 (30 °C) and -1.11 ± 0.15 (37 °C).
With CUUGAGCAAUAUUACGUUCG, the “self-splicing fitness (ln)” value by setting is: (30 °C) -3.19 ± 0.3; (37 °C) -1.71 ± 0.21.
For the sequence CUUUAGCAAUAUUACGACAC, the “self-splicing fitness (ln)” value is -3.75 ± 0.3 (30 °C) and -2.54 ± 0.27 (37 °C).
In the same order, the values of CUUUAGCAAUAUUACGACAU are -3.762 ± 0.032 and -2.81 ± 0.043.
In the same order, the values of CUUUAGCAAUAUUACGAGGA are -2.59 ± 0.32 and -3.02 ± 0.4.
On the same counts, the results for CUUUAGCAAUAUUACGCGUG are -1.89 ± 0.14 and -1.12 ± 0.17.
As for CUUUAGCAAUAUUACGCUCU, the “self-splicing fitness (ln)” value was -2.15 ± 0.22 (30 °C) and -1.3 ± 0.26 (37 °C).
On the same counts, the results for CUUUAGCAAUAUUACGGAAU are -1.75 ± 0.23 and -1.73 ± 0.36.
